The results in this text go back to US20210253713A1 (ABEXXA BIOLOGICS, published 2021).

Assay [1] deals with T1, HLA-E/… (human, UniProt P13747 22-297; P61769 21-119, limits assumed).
T1 construct: Soluble biotin-labeled control complex; also called control HLA-E/peptide complex
Kind of assay: ELISA, antibody captured on Protein-A wells, soluble biotin-labeled HLA-E/peptide complex, SA-HRP. As to the method: (§1) The isolated scFv VL and VH domains were cloned into pFUSE-hIgG1-Fc and pFUSE2-CLIg-hk plasmids, respectively and plasmid DNA was prepared using standard protocol and used to co-transfect a 200 ml culture of Expi-293 cells. Following the manufacturer's instructions, supernatants were harvested at day 5 post-transfection for antibody purification using Protein-A coated beads. Next, the purified mouse-human chimeric IgG1 antibody, MAB-031 and the fully human antibody, MAB-036 were characterized for binding specificity and sensitivity by ELISA. In brief, Protein-A coated 96-wells were used to capture either MAB-031 or MAB-036 added to wells at a concentration of 10 ug/ml. After incubation for 60 min, wells were washed using PBS (pH 7.4)+0.1% Tween-20 and soluble biotin-labeled HLA-E/peptide complexes were added to individual wells at concentrations ranging from 0.25 to 0.0625 ug/ml. Wells were washed 3× using a solution of PBS+Tween-20 and then streptavidin-Horseradish peroxidase (SA-HRP) conjugate was added to wells and incubated for 30 min. One final wash was done and the substrate solution containing 3,3′,5,5′-tetramethylbenzidine (TMB) was added to wells and developed for 10 min before adding stop solution (0.16M sulfuric acid) to terminate the reaction.

In assay [2] the target is T2, HLA-E/… (human, UniProt P13747 22-297; P61769 21-119, limits assumed).
T2 construct: Soluble biotin-labeled control complex; also called control HLA-E/peptide complex
The assay is described as above. As to the method: as §1
The source holds these as a separate data set.

Assay [3] deals with T3, HLA-E/… (human, UniProt P13747 22-297; P61769 21-119, limits assumed).
T3 construct: Biotin-labeled control complex, used in both ELISA formats; also called control HLA-E/peptide complex
Put plainly: ELISA, biotin-labeled complex on neutravidin plates, soluble bivalent IgG1, anti-human-HRP. As to the method: (§2) To further evaluate the binding specificity and detection sensitivity of MAB-031 and MAB-036, a second ELISA was performed. For this assay, neutravidin coated plates were used to capture biotin-labeled HLA-E/peptide complexes. Because the HLA-E/peptide complexes have a single biotin molecule conjugated to the c-terminal end BirA tag, the immobilization of these complexes results in having the molecules lined up in a homogenous directional orientation. After incubation, unbound biotin-labeled HLA-E/peptide complexes are removed by rinsing the plate in a PBS+tween-20 buffer solution. MAB31 and MAB36 were then added to wells at concentrations that ranged from 1 ug/ml to 0.0001 ug/ml. Incubation was carried out for 1 hr, wells were rinsed and bound MAB was detected using a 1:2500 dilution of a goat anti-human-HRP conjugate. The assay was developed by adding the TMB substrate solution was added to wells and developed for 10 min before adding stop solution to terminate the reaction.

Assay [4] deals with T4, HLA-E/… (human, UniProt P13747 22-297; P61769 21-119, limits assumed).
T4 construct: Biotin-labeled control complex captured on neutravidin plates through a C-terminal BirA tag; also called control HLA-E/peptide complex
The description is as above. As to the method:
as §2

Assay [5] has as its target T5, HLA-E/… (human, UniProt P13747 22-297; P61769 21-119, limits assumed).
T5 construct: Biotin-labeled control complex captured on neutravidin plates through a C-terminal BirA tag; also called control HLA-E/peptide complex
Described as above. As to the method:
as §2
This is another data set of the same source.

Assay [6] deals with T6, HLA-E/… (human, UniProt P13747 22-297; P61769 21-119, limits assumed).
T6 construct: Biotin-labeled control complex captured on neutravidin plates through a C-terminal BirA tag; also called control HLA-E/peptide complex
The assay is described as above. As to the method: as §2
The source holds these as a separate data set.

Assay [7] deals with T7, HLA-E/… (human, UniProt P13747 22-297; P61769 21-119, limits assumed).
T7 construct: Biotin-labeled control complex captured on neutravidin plates through a C-terminal BirA tag; also called control HLA-E/peptide complex
The assay is described as above. As to the method:
as §2
This is another data set of the same source.

B1: MAB-036 (anti-HLA-E/…) (antibody, V domains shown)
VH: EVQLVESGGGLVQPGGSLRLSCAASGFTFSSYAIHWVRQAPGKGLEWVARIAYGGGATRYADSVKGRFTISADTSKNTAYLQMNSLRAEDTAVYYCAKGLSNFDYWGQGTLVTVSS
VL: DIQMTQSPSSLSASVGDRVTITCRASQSISSYLNWYQQKPGKAPKLLIYNAAFLYSGVPSRFSGSRSGTDFTLTISSLQPEDFATYYCQQAATYPATFGQGTKVEIK
notes: Full-length human IgG1 (pFUSE vector system, human kappa); CDRs of R4Clone #1 mutated light chain were grafted onto trastuzumab VH and VL frameworks; also called MAB36
B1: the binding result is listed as “no binding” in assay [1]; “no binding” in assay [2]; “no binding (tested: 1 ug/ml to 0.0001 ug/ml)” in assay [3]; “no binding (tested: 1 ug/ml to 0.0001 ug/ml)” in assay [4]; “no binding (tested: 1 ug/ml to 0.0001 ug/ml)” in assay [5]; “no binding (tested: 1 ug/ml to 0.0001 ug/ml)” in assay [6]. Also, the binding result in assay [7] is “no binding (tested: 1 ug/ml to 0.0001 ug/ml)”.

B2: MAB-031 (anti-HLA-E/…) (antibody, V domains shown)
VH: QVQLQQSGPELVKPGASVKMSCKASGYTFTDYVISWVKQRTGQGLEWIGEIYPGNNTTYYNDNFRGKATLTVDKSSSTAYMQLSSLTSEDSAVYYCARESLGIYYGSTYKGLYAMDYWGQGTTLTVSS
VL: QIVLTQSPAIMSASPGEKVTITCSASSSVSYMHWFQQKPGTSPKLWIYSTSNLASGVPARFSGSGSGTSYSLTISRMEAEDAATYYCQQRSSYPPTFGAGTKLELKR
notes: also called MAB31; MAB-31
Take B2: the binding result in assay [1] is reported as “no binding”; in assay [2], “no binding”; in assay [3], “no binding (tested: 1 ug/ml to 0.0001 ug/ml)”; in assay [4] it was “no binding (tested: 1 ug/ml to 0.0001 ug/ml)”; in assay [5], “no binding (tested: 1 ug/ml to 0.0001 ug/ml)”; in assay [6] it was “no binding (tested: 1 ug/ml to 0.0001 ug/ml)”. Moreover, the binding result in assay [7] was “no binding (tested: 1 ug/ml to 0.0001 ug/ml)”.
